Measurements from US20160039947A1 (Eli Lilly, published 2016).
One block for each binder: values may come before it.

Target: T1, hEGFR-Fc (human, UniProt P00533 25-645)
T1 construct: Biotin-labelled (EZ-Link Sulfo-NHS-LC-Biotin) as detection reagent in the ELISA; unlabelled second injection in SPR; also called hEGFR-Fc-biotin; not shown: Fc part of the bought fusion protein
Test: sandwich ELISA: hHER-2-Fc coated, BsAb, hEGFR-Fc-biotin detection
Experimental: Two sandwich ELISAs are developed, one for detecting anti-HER-2/anti-EGFR BsAb activity and one for detecting anti-cMET/anti-Axl BsAb activity. For both ELISAs, clear 96-well round bottom high binding Immulon microtiter plates (Greiner bio-one, cat#650061) are coated overnight at 2-8° C. with 50 μL/well 1 μg/mL hHER-2-Fc or 1 μg/mL hHGFR(cMet)-Fc (both from R&D systems) in a 50 mM Na₂CO₃ pH 8 buffer. The plates are washed 4 times with PB ST and blocked with 100 μL/well casein buffer (Pierce) for 1 hr at 37° C. The plates are then washed 4 times with PBST and the parental IgG controls or BsAb IgG test articles are added at 50 μL/well and 5 μg/mL and serially diluted 1:3 down the plate. The test articles are incubated on the plate for 1 hr at 37° C. The plates are then washed 4 times with PBST and 50 μL/well 0.2 μg/mL hEGFR-Fc-biotin or hAxl-Fc-biotin (both from R&D systems) is added for 1 hr at 37° C. The plates are then washed 4 times with PBST followed by the addition of a 50 μL/well streptavidin-HRP (Jackson Labs) diluted 1:2000 in PBST. The streptavidin-HRP is incubated in each well for 1 hr at 37° C. The plates are then washed 4 times with PBST and 100 μL/well 1-component TMB substrate is added (KPL laboratories). After approximately 10 minutes, […] 1% H₃PO₄ (in H₂O) is added to each plate to quench the reaction. Absorbance (450 nm) of every well in the plates is read using a SpectraMax UV plate reader (Molecular Devices). Biotin-labeling of the hEGFR-Fc and hAxl-Fc proteins is performed using EZ-Link Sulfo-NHS-LC-Biotin (Thermo Scientific) according to the manufacturer's protocol.

binding result: binds
B1: HEControl λλ (anti-HER-2/anti-EGFR IgG BsAb without Fab redesigns) (bispecific antibody)
heavy 1: EVQLVESGGGLVQPGGSLRLSCAASGFTFTDYTMDWVRQAPGKGLEWVADVNPNSGGSIYNQRFKGRFTLSVDRSKNTLYLQMNSLRAEDTAVYYCARNLGPSFYFDYWGQGTLVTVSSASTKGPSVFPLAPSSKSTSGGTAALGCLVKDYFPEPVTVSWNSGALTSGVHTFPAVLQSSGLYSLSSVVTVPSSSLGTQTYICNVNHKPSNTKVDKKVEPKSCDKTHTCPPCPAPELLGGPSVFLFPPKPKDTLMISRTPEVTCVVVDVSHEDPEVKFNWYVDGVEVHNAKTKPREEQYQSTYRVVSVLTVLHQDWLNGKEYKCKVSNKALPAPIEKTISKAKGQPREPQVYTLPPSRDELTKNQVSLTCLVKGFYPSDIAVEWESNGQPENNYDTTPPVLDSDGSFFLYSDLTVDKSRWQQGNVFSCSVMHEALHNHYTQKSLSLSPG
light 1: DIQMTQSPSSLSASVGDRVTITCKASQDVSIGVAWYQQKPGKAPKLLIYSASYRYTGVPSRFSGSGSGTDFTLTISSLQPEDFATYYCQQYYIYPYTFGQGTKVEIKGQPKAAPSVTLFPPSSEELQANKATLVCLISDFYPGAVTVAWKADSSPVKAGVETTTPSKQSNNKYAASSYLSLTPEQWKSHRSYSCQVTHEGSTVEKTVAPTEC
heavy 2: QVQLVQSGAEVKKPGASVKVSCKASGYTFTSHWMHWVRQAPGQGLEWIGEFNPSNGRTNYNEKFKSKATMTVDTSTNTAYMELSSLRSEDTAVYYCASRDYDYDGRYFDYWGQGTLVTVSSASTKGPSVFPLAPSSKSTSGGTAALGCLVKDYFPEPVTVSWNSGALTSGVHTFPAVLQSSGLYSLSSVVTVPSSSLGTQTYICNVNHKPSNTKVDKKVEPKSCDKTHTCPPCPAPELLGGPSVFLFPPKPKDTLMISRTPEVTCVVVDVSHEDPEVKFNWYVDGVEVHNAKTKPREEQYQSTYRVVSVLTVLHQDWLNGKEYKCKVSNKALPAPIEKTISKAKGQPREPQVYTLPPSRKELTKNQVSLTCLVKGFYPSDIAVEWESNGQPENNYKTTPPVLKSDGSFFLYSKLTVDKSRWQQGNVFSCSVMHEALHNHYTQKSLSLSPG
light 2: DIQMTQSPSSLSASVGDRVTITCSASSSVTYMYWYQQKPGKAPKLLIYDTSNLASGVPSRFSGSGSGTDYTFTISSLQPEDIATYYCQQWSSHIFTFGQGTKVEIKGQPKAAPSVTLFPPSSEELQANKATLVCLISDFYPGAVTVAWKADSSPVKAGVETTTPSKQSNNKYAASSYLSLTPEQWKSHRSYSCQVTHEGSTVEKTVAPTEC
notes: The preparation held 65% correctly paired heterotetramer by LC/MS

binding result: binds
B2: HEControl λκ (anti-HER-2/anti-EGFR IgG BsAb without Fab redesigns) (bispecific antibody)
heavy 1: B1 heavy 1
light 1: B1 light 1
heavy 2: B1 heavy 2
light 2: DIQMTQSPSSLSASVGDRVTITCSASSSVTYMYWYQQKPGKAPKLLIYDTSNLASGVPSRFSGSGSGTDYTFTISSLQPEDIATYYCQQWSSHIFTFGQGTKVEIKRTVAAPSVFIFPPSDEQLKSGTASVVCLLNNFYPREAKVQWKVDNALQSGNSQESVTEQDSKDSTYSLSSTLTLSKADYEKHKVYACEVTHQGLSSPVTKSFNRGEC
